Assay results: patent US9265845B2, “Imaging methods using engineered integrin binding peptides” (The Board of Trustees of the Leland Stanford Junior …, priority 2006, dated 2016)
Like-named read-outs stand apart in the source and are kept apart here. Positions of bridges follow the written chain, without caps; N, C: chain ends. Residues, ends and D or L forms follow the SMILES beside them. *: point of attachment. DOTA = O=C(O)CN1CCN(CC(=O)O)CCN(CC(=O)*)CCN(CC(=O)O)CC1

Experiments:
[1] = MicroPET imaging and biodistribution of radiolabeled peptides in U87MG tumor-bearing mice; assay type: in vivo, mouse; conditions: female, athymic nude (nu/nu), mouse, in vivo, iv, total radioactivity; for tissue uptake at 0.5 h: 0.5 h post injection; for tissue uptake at 2 h: 2 h post injection; for tissue uptake at 4 h: 4 h post injection; for tissue uptake at 25 h: 25 h post injection
Description: (§1) MicroPET imaging of tumor-bearing mice is performed on a microPET R4 rodent model scanner (Concorde Microsystems Inc, Knoxyille, Tenn.). U87MG tumor bearing mice are injected with PET imaging agent via the tail vein. At various times post injection, the mice are anesthetized with 2% isoflurane, and 10 min static scans are obtained. Images are reconstructed by a two-dimensional ordered expectation maximum subset algorithm as previously described. Regions of interest (ROI) are drawn over the tumor on decay corrected whole body images and ROI derived % injected dose per gram of tissue is determined. Statistical analysis is performed using the student's t-test for unpaired data. A 95% confidence level is used to determine statistical significance.
(§2) Female athymic mice bearing U87MG tumors were injected with 80-150 μCi of ^64Cu-DOTA-knottin 2.5D or 7-9 μCi of [^18F]-FB-E[knottin 2.5D]. Static images were taken at various timepoints post injection using a microPET R4 rodent model scanner (Concorde Microsystems Inc, Knoxyille, Tenn.). […] Uptake was also observed in the kidney as both probes cleared through the bladder.
(§3) Mice are sacrificed by exanguinations at various time points postinjection. Blood, tumor and the major organs and tissues are collected, wet-weighed and measured in a γ-counter. The % injected dose per gram is determined for each sample. For each mouse, radioactivity of the tissue samples is calibrated against a known aliquot of the injectate. Values are reported as the mean±standard deviation.
(§4) The following Table 10 quantifies the ^64Cu-DOTA knottin uptake by direct tissue sampling of the mice up to 24 hours post injection and is reported in % ID (percent injected dose)/gram. Similar results were obtained with [^18F]-FB-E[knottin 2.5D].
(§5) A U87MG glioblastoma xenograft mouse model was used. U87MG cells were maintained at 37° C. in a humidified atmosphere containing 5% CO2 in Dulbecco's modified eagle medium, 10% heat-inactivated fetal bovine serum, and penicillin-streptomycin (all from Invitrogen). Animal procedures were carried out according to a protocol by Stanford University Administrative Panels on Laboratory Animal Care. Female athymic nude mice (nu/nu), obtained at 4-6 weeks of age (Charles River Laboratories, Inc.), were injected subcutaneously in the right or left shoulder with 2×10^7 U87MG glioblastoma cells suspended in 100 μL of PBS. Mice were used for in vivo imaging studies when their tumors reached approximately 8 to 10 millimeters in diameter.
(§6) U87MG tumor-bearing mice (n=3 or more for each probe) were injected with ˜100 μCi of ^64Cu-DOTA-conjugated peptides via the tail vein and imaged with a microPET R4 rodent model scanner (Siemens Medical) using 3 or 5 min static scans. […] Images were reconstructed by a two dimensional ordered expectation maximum subset algorithm and calibrated as previously described (Wu, Y, Zhang, X, Xiong, Z, et al. microPET imaging of glioma integrin {alpha}v{beta}3 expression using (64)Cu-labeled tetrameric RGD peptide. J Nucl Med 2005; 46:1707-18). ROIs were drawn over the tumor on decay-corrected whole body images using ASIPro VM software (Siemens Medical). The mean counts per pixel per minute were obtained from the ROI and converted to counts per milliliter per minute with a calibration constant. ROIs were converted to counts/g/min, and % ID/g values were determined assuming a tissue density of 1 g/mL. No attenuation correction was performed.

U87MG tumor = test: as above; assay type: in vivo, mouse; conditions: radiolabeled peptides, U87MG tumor-bearing mice
Description: as §1, §2, §3, §4, §5, §6

αvβ3 integrin = αvβ3 integrin (Homo sapiens, UniProt P05106+P06756); test: Yeast-displayed peptide binding to soluble αvβ3 integrin, flow cytometry; conditions: yeast-displayed peptides
Description: The yeast display construct shown in FIG. 1A has the general orientation: Aga2-HA-engineered knottin—c-myc epitope, with the c-myc epitope at the carboxy terminus of the peptide. […] Bound integrin is detected with an anti-integrin antibody, labeled with FITC.
Below is a typical protocol to label a yeast library samples for sorting by flow cytometry (FACS): • 1. Want 2×10^6 cells, OD600 of […] • 2. Add 1 mL PBS/BSA (phosphate buffered saline containing 1 mg/mL bovine serum albumin) to wash cells • 3. Spin down cells 3 min at 8000 RPM • 4. Remove supernatant using vacuum • 5. Re-suspend in 40 μL PBS/BSA containing proper amount of integrin (100 nM [2.5 μL of stock αvβ3]; no anti-cmyc at this point) • 6. Incubate for 1.5 h at r.t (w/tumbling) • 7. Add 1:250 dilution of (chick anti-cmyc) to labeling solution • 8. […] Incubate 1 h at 4° C. (w/tumbling) • 10. Keep on ice after this step. • 11. Spin down cells 3 min at 8000 RPM, 4° C. and vacuum supernatant • 12. Repeat wash steps 2-4 • 13. Re-suspend in 40 μL PBS/BSA containing proper amount of secondary labels (secondary labeling is simultaneous) • i. Anti-integrin Ab (FITC conj): 1:25 dilution+Anti-chick (Alexa 555): 1:100 dilution • ii. Positive control: Anti-chick (Alexa 555): 1:100 dilution (for FACS compensation) • iii. Positive control: Anti-chick (Alexa 488): 1:100 dilution (for FACS compensation) • 14. Incubate on ice 30 min and keep in dark (lid on ice bucket) • 15. Spin down cells at 3 min at 8000 RPM, 4° C. and vacuum supernatant • 16. Repeat steps 2-4: Add 1 mL PBS/BSA, pellet cells, vacuum supernatant • 17. Leave pelleted cells on ice until use. Fluorescent Cell Sorting
Commercially available flow cytometers can measure fluorescence emissions at the single-cell level at four or more wavelengths, at a rate of approximately 50,000 cells per second (Ashcroft and Lopez, 2000). Typical flow cytometry data are shown in FIG. 4-7, in which yeast have been labeled with two different color fluorescent probes to measure protein expression levels and bound soluble ligand (in this case integrin receptor). A ‘diagonal’ population of cells results due to variation in protein expression levels on a per cell basis: cells that express more protein will bind more ligand. The equilibrium binding constant (Kd) can be determined by titration of soluble ligand, and the dissociation rate constant (koff) can be measured through competition binding of unlabeled ligand. With yeast, a monodispersity of tethered proteins exists over the cell surface, and soluble ligand are used for binding and testing, such that avidity effects are not observed, unlike other display methods using immobilized ligands. To date, the properties of most proteins expressed on the yeast cell surface mimic what is seen in solution in terms of stability and binding affinity (Bader et al., 2000; Feldhaus et al., 2003; Holler et al., 2000; VanAntwerp and Wittrup, 2000). See, also, Weaver-Feldhaus et al., “Directed evolution for the development of conformation-specific affinity reagents using yeast display,” Protein Engineering Design and Selection Sep. 26, 2005 18(11):527-536.
Cell sorting was carried out on a FACSVantage (BD Biosciences) multiparameter laser flow cytometer and cell sorter. Before sorting, fluorescent staining was carried out as described above, so that analysis of integrin binding and c-myc expression levels were detected, as described above. […]

[2] = direct tissue sampling, read-out: Kidney uptake, mean
[3] = direct tissue sampling, read-out: Liver uptake, mean
[4] = direct tissue sampling, read-out: Muscle uptake, mean
[5] = direct tissue sampling, read-out: Tumor uptake, mean

Sequence of αvβ3 integrin (P06756 31-889 limits assumed): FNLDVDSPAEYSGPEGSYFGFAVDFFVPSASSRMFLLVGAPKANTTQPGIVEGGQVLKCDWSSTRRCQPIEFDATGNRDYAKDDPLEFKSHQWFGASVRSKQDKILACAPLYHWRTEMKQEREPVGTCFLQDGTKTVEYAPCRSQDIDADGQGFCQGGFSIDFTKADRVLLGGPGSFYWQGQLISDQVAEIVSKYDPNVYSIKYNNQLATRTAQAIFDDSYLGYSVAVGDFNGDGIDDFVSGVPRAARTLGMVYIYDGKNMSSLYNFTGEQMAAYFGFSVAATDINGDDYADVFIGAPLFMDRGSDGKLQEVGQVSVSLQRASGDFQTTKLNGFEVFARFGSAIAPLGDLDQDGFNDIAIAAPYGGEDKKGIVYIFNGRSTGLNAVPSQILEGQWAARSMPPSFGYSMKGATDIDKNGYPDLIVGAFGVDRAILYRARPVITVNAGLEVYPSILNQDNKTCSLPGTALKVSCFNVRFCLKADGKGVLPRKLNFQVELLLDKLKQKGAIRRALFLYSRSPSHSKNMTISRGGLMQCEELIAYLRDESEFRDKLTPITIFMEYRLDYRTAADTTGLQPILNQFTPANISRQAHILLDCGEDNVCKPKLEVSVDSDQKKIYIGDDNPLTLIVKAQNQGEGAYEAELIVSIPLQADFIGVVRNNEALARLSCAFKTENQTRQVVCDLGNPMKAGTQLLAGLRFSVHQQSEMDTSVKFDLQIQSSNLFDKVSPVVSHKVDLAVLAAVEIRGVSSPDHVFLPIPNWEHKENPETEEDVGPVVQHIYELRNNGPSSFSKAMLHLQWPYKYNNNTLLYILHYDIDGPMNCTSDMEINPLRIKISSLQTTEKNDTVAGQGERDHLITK
Sequence of αvβ3 integrin (P06756 891-1048 partner limits assumed): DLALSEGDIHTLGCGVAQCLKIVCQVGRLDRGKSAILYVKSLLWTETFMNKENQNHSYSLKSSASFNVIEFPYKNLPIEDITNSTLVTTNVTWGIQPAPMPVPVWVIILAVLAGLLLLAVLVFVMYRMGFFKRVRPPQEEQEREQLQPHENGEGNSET
Sequence of αvβ3 integrin (P05106 27-788): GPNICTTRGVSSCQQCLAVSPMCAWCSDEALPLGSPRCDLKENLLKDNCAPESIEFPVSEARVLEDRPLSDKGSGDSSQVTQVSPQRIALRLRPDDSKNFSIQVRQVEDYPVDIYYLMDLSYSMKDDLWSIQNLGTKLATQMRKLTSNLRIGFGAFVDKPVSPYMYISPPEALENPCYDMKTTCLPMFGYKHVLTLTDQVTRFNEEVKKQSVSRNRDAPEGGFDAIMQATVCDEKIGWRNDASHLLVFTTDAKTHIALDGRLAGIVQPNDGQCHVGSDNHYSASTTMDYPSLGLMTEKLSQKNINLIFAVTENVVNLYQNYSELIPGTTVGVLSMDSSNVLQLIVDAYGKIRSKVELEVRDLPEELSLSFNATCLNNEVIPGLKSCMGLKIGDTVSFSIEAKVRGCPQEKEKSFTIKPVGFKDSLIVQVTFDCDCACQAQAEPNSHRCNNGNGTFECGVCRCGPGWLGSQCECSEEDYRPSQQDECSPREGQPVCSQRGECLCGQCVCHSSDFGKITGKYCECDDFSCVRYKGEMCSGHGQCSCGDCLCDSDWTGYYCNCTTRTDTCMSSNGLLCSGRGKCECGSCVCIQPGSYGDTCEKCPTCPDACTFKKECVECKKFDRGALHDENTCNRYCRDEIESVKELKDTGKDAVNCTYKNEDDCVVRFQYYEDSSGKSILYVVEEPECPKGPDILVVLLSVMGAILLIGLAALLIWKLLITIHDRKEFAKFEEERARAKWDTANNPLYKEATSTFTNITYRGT

CC(C)[C@@H]1NC(=O)[C@@H]2CSSC[C@H](NC(=O)CNC(=O)CN3CCN(CC(=O)O)CCN(CC(=O)O)CCN(CC(=O)O)CC3)C(=O)N3CCC[C@H]3C(=O)N[C@@H](CCC(N)=O)C(=O)NCC(=O)N[C@@H](CCCNC(=N)N)C(=O)NCC(=O)N[C@@H](CC(=O)O)C(=O)N[C@@H](Cc3c[nH]c4ccccc34)C(=O)N[C@@H](C)C(=O)N3CCC[C@H]3C(=O)N[C@@H]([C@@H](C)O)C(=O)N[C@@H](CO)C(=O)N[C@H]3CSSC[C@H](NC1=O)C(=O)NCC(=O)N1CCC[C@H]1C(=O)N[C@@H](CC(N)=O)C(=O)NCC(=O)N[C@@H](Cc1ccccc1)C(=O)N[C@H](C(=O)NCC(=O)O)CSSC[C@H](NC(=O)[C@H](CC(=O)O)NC(=O)[C@H](CO)NC(=O)[C@H](CC(=O)O)NC(=O)[C@H](CCC(N)=O)NC(=O)[C@H](CO)NC3=O)C(=O)N[C@@H](CCCNC(=N)N)C(=O)N[C@@H](C)C(=O)NCC(=O)N2 [^64Cu-DOTA-knottin 2.5D, metal not drawn] ({DOTA}-GCPQGRGDWAPTSCSQDSDCRAGCVCGPNGFCG-OH; disulfide 2-24, 14-26, 20-32; C-terminus assumed)
tissue uptake at 0.5 h [1, 2]: 7.26 %ID/g | tissue uptake at 0.5 h [1, 3]: 1.39 %ID/g | tissue uptake at 0.5 h [1, 4]: 0.45 %ID/g | tissue uptake at 0.5 h [1, 5]: 4.94 %ID/g | tissue uptake at 1 h ([1]; 1 h post injection, direct tissue sampling, read-out: Kidney uptake, mean): 4.06 %ID/g | tissue uptake at 1 h ([1]; 1 h post injection, direct tissue sampling, read-out: Liver uptake, mean): 1.29 %ID/g | tissue uptake at 1 h ([1]; 1 h post injection, direct tissue sampling, read-out: Muscle uptake, mean): 0.28 %ID/g | tissue uptake at 1 h ([1]; 1 h post injection, direct tissue sampling, read-out: Tumor uptake, mean): 4.47 %ID/g | tissue uptake at 2 h [1, 2]: 3.45 %ID/g | tissue uptake at 2 h [1, 3]: 0.98 %ID/g | tissue uptake at 2 h [1, 4]: 0.07 %ID/g | tissue uptake at 2 h [1, 5]: 2.89 %ID/g | tissue uptake at 4 h [1, 2]: 3.26 %ID/g | tissue uptake at 4 h [1, 3]: 0.92 %ID/g | tissue uptake at 4 h [1, 4]: 0.06 %ID/g | tissue uptake at 4 h [1, 5]: 2.24 %ID/g | tissue uptake at 25 h [1, 2]: 1.75 %ID/g | tissue uptake at 25 h [1, 3]: 0.53 %ID/g | tissue uptake at 25 h [1, 4]: 0.03 %ID/g | tissue uptake at 25 h [1, 5]: 1.31 %ID/g | PET tumor targeting / imaging signal, in words (U87MG tumor): clearly targeted the U87MG tumor

N=C(N)NCCC[C@@H]1NC(=O)[C@H](CCCCN)NC(=O)[C@@H](Cc2ccc(O)cc2)NC(=O)[C@H](CC(=O)O)NC(=O)CNC1=O [c(RGDyK), reference compound]
tissue uptake at 1 h ([1]; Tumor uptake): 2.32 ± 0.55 %ID/g | tissue uptake at 1 h ([1]; non-specific liver uptake): ~4 %ID/g

CVRLHESCLGQQVPCCDPCATCYCTGRGDSPASCYCRKLGTAMNPCSRT [RGD-AgRP#3]
integrin binding compared in words (αvβ3 integrin): RGD-AgRP #1<#2, <#3

GCVRLHESCLGQQVPCCDPCATCYCRGDCYCRKLGTAMNPCSRT [RGD-AgRP#1]
integrin binding compared in words (αvβ3 integrin): RGD-AgRP #1<#2, <#3

GCVRLHESCLGQQVPCCDPCATCYCTGRGDSCYCRKLGTAMNPCSRT [RGD-AgRP#2]
integrin binding compared in words (αvβ3 integrin): RGD-AgRP #1<#2, <#3

RGD-EETI#2: EETI-II scaffold with native fibronectin RGD loop, RGD at insert positions 3-5, SEQ ID NO: 20 (GCTGRGDSPASSKCKQDSDCLAGCVCGPNGFCG)
integrin binding compared in words (αvβ3 integrin): approximately half the affinity of RGD-EETI#3
